Laboratory results: patent publication US20240228559A1, “REDOX SENSITIVE CRALBP MUTANT PROTEINS” (UNIVERSITÄT BERN, priority 2021, published 2024)

How the values were obtained:
CRALBP = target: T1, CRALBP (Bos taurus, UniProt P10123); conditions: CRALBP isolated from bovine retina; cited from earlier work
T1 construct: CRALBP was isolated from bovine retina; from tissue; host or cells: bovine retina

[1] = Photoisomerization assay of cis-retinal complexes under daylight bulb, UV/Vis; format: physicochemical; conditions: for k, reaction velocity of photoisomerization: oxidized overnight at 4° C. with 5 mM oxidized glutathione, reduced with DTT
Method: Photoisomerization assays of cis-retinal and its complexes with wild-type CRALBP or with di-cysteine mutant A212C:T250C of CRALBP were performed essentially as described by Saari et al. (Saari J C and Bredberg D L, ([…]), J Biol Chem. 262(16):7618-22). For this, the gel permeation chromatography purified ligand complexes were diluted to 26 μM in (GFC) buffer (10 mM Hepes, 100 mM NaCl, pH 7.5) and equimolar amounts of BSA were added to avoid protein precipitation through the light induced formation of free all-trans-retinal. […] Simultaneously UV/Vis absorption spectra were collected every 180 seconds for 3600 sec in total using the Evolution array UV/Vis spectrophotometer (Thermo Scientific). For photoisomerization experiments of the oxidized mutant A212C: T250C or the wild-type CRALBP, 5 mM oxidized glutathione was added to the preformed complexes and the mixtures were kept overnight at 4° C. For repeated reduction, the oxidized glutathion was first removed from the samples using a Vivaspin 15R Hydrosart (Sartorius) by three times concentrating the samples to a tenth of the volume and subsequent redilution in buffer (10 mM Hepes, 100 mM NaCl, pH 7.5) to the original volume. The washed samples were then reduced by adding 5 mM DTT and kept at 4° C. for 1 hour. […] Thus, the introduction of the A212C:T250C double mutation represents an engineered redox-sensitive on-off switch into human CRALBP allowing for a reversible turning on and off of CRALBP's mobile gate functionality. The two mutations are located at adjacent positions in the mobile gate's interface of CRALBP allowing for the formation of an intramolecular disulfide bond under oxidizing conditions and to regain the gate's native functionality under reducing conditions.

[2] = both in complex with 11-cis-retinal; estimated from first order rate constants and extinction coefficients; cited from earlier work
[3] = Dynamic light scattering of GFC complex fractions; format: physicochemical; conditions: DLS, 25° C., H2O; ± SD
Method: The same fractions derived from the preparative GFC that were characterized by analytical GFC, were also analyzed by dynamic light scattering (DLS) on a Malvern Zetasizer S®. Each DLS experiment contains was performed following the settings compiled in Table 5, the run duration and number of runs per measurement was set according to the auto-optimization of the Malvern Zetasizer software.

T1 sequence (P10123 whole entry): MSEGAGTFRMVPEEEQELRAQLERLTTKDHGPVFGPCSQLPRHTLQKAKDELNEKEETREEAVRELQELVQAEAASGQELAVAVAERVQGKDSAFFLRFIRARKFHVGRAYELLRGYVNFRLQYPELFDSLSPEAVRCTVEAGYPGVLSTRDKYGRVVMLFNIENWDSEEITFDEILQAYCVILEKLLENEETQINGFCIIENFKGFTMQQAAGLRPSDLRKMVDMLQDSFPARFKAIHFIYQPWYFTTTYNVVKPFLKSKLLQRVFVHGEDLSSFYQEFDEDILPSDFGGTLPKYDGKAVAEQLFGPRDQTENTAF

CC1=C(/C=C/C(C)=C\C=C\C(C)=C\C=O)C(C)(C)CCC1 [9-cis-retinal]
Kd (CRALBP): 53 nM

CC1=C(/C=C/C(C)=C/C=C/C(C)=C/C=O)C(C)(C)CCC1 [11-cis-retinal]
Kd (CRALBP): 20 nM

CC1=C(/C=C/C(C)=C/C=C\C(C)=C\CO)C(C)(C)CCC1 [11-cis-retinol]
Kd (CRALBP): 60 nM

CC1=C(/C=C/C(C)=C/C=C/C(C)=C/C=O)C(C)(C)CCC1 [13-cis]
binding to CRALBP (CRALBP): does not bind

A212C:T250C: human CRALBP mutein with alanine 212 and threonine 250 replaced by cysteines, SEQ ID NO:9
increase of photostability (half-life t1/2), oxidized versus reduced redox state ([1]; FIG. 8, complex with cis-retinal, 1000 lux): 20 fold | slowing down of the rate of photoisomerization ([1]; oxidized state, FIG. 9, 380 lux, room temperature): at least 10 fold | behaviour in photoisomerization assay after repeat reduction ([1]; repeat reduction of the oxidized sample in 5 mM DTT): re-established wild-type like behavior

CRALBP: CRALBP isolated from bovine retina, in complex with 11-cis-retinal
expected photoisomerization in CRALBP compared to rhodopsin [2]: 4%

HMW: high molecular weight oligomeric complex fraction of A212C:T250C CRALBP with 9-cis-retinal
average size distribution in diameter [3]: 13.50±0.47 nm

SHMW: super high molecular weight oligomeric complex fraction of A212C:T250C CRALBP with 9-cis-retinal
average size distribution in diameter [3]: 28.28±2.13 nm

dimeric complex: dimeric GFC fraction of A212C:T250C CRALBP loaded with 9-cis-retinal
average size distribution in diameter [3]: 8.72±2.41 nm

monomeric complex of di-cysteine A212C:T250C CRALBP with 9-cis-retinal: monomeric GFC fraction of A212C:T250C CRALBP loaded with 9-cis-retinal
average size distribution in diameter [3]: 6.50±1.50 nm

ox. A212C:T250C: 11-cis-retinal: oxidized A212C:T250C mutant in complex with 11-cis-retinal
k, reaction velocity of photoisomerization ([1]; FIG. 9): 6.44e-06 s⁻¹

oxidized A212C:T250C:9-cis-retinal: oxidized A212C:T250C mutant in complex with 9-cis-retinal
photoisomerization detectable ([1]; FIG. 9, oxidized with 5 mM oxidized glutathione): No photoisomerization was detectable

red. A212C:T250C: 11-cis-retinal: reduced A212C:T250C mutant in complex with 11-cis-retinal
k, reaction velocity of photoisomerization ([1]; FIG. 9): 5.988e-05 s⁻¹

wild-type: wild-type CRALBP in complex with cis-retinal, photoisomerization assay [reference compound]
k, reaction velocity of photoisomerization ([1]; FIG. 9): 6.324e-05 s⁻¹
